Patent publication US20070014767A1

Columns and labels:
[1] = molecular target: TGFβ1 (human recombinant) (human) (UniProt P01137); experiment: cell-based or functional assay
[2] = molecular target: TGFβ1 (human recombinant) (human) (UniProt P01137); experiment: affinity labelling of MV-1-Lu cells with 125I-TGFβ1, titration of P144; details: scale: times the molar concentration of 125I-TGFβ1
[3] = molecular target: TGFβ1 (human recombinant) (human) (UniProt P01137); experiment: flow cytometry; inhibition of binding of TGFβ1-biotin to MV-1-Lu cell receptors, peptide 420 µg/ml, peptide incubated with TGFβ1-biotin
[4] = molecular target: TGFβ1 cell receptors on MV-1-Lu cells (mink); experiment: cell-based or functional assay
[5] = molecular target: TGFβ1 cell receptors on MV-1-Lu cells (mink); experiment: flow cytometry; inhibition of binding of TGFβ1-biotin to MV-1-Lu cell receptors, peptide 420 µg/ml, peptide incubated with the cells

TGFβ1 (human recombinant) (human), sequence (P01137 279-390 limits assumed): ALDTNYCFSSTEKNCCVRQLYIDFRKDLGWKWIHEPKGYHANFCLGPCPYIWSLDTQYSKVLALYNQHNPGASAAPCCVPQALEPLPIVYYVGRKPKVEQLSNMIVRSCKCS

Row | Molecule | Bioassay (% inhibition) of TGFβ1 activity: growth of MV-1-Lu cells, TGFβ1 200 pg/ml, peptide 200 µg/ml [1] [%] | peptide concentration at which inhibition of 125I-TGFβ1 binding to the cell receptors is lost [2] | Cytometry (% inhibition) [3] [%] | Bioassay (% inhibition) of TGFβ1 activity: growth of MV-1-Lu cells, TGFβ1 200 pg/ml, peptide 200 µg/ml [4] [%] | Cytometry (% inhibition) [5] [%]
1 | peptide P144(729-742) | 88 | 200000 | 80 | – | –
2 | HEPKGYHANFCLGPCPYIWSLDT [peptide P29(313-335)] | – | – | – | 77.6 | 92.3
3 | HANFCLGPCPYIWSLA [peptide P11(319-333)] | – | – | – | 40 | 86
4 | FCLGPCPYIWSLDTA [peptide P12(322-335)] | – | – | – | 96 | 77
5 | LYNQHNPGASAAPCCA [peptide P18(343-358)] | – | – | – | 18.2 | 6.5
